Target: T1, β2-adrenergic receptor (β2-AR) (Homo sapiens (assumed), UniProt P07550)
T1 construct: β2-adrenoceptor (β2-AR), crystallised in the active state with a catecholamine-type agonist (super-epi or super-iso) and Nb6B9; Conference abstract (poster P20) with no methods; also called ß2-AR
Assay: crystal structure; co-crystal structures of β2-AR with super-epi or super-iso, bound to Nb6B9; active state of the receptor (Figure 17 legend)
Settings: both partners purified

binding result: binds
B1: Nb6B9 (VHH)
VHH: QVQLQESGGGLVQAGGSLRLSCAASGSIFALNIMGWYRQAPGKQRELVAAIHSGGTTNYANSVKGRFTISRDNAANTVYLQMNSLKPEDTAVYYCNVKDFGAIIYDYDYWGQGTQVTVSS
